Laboratory results from patent publication US20240417475A1 (AFFIMED, published 2024).
Values belong to the binder of their own block, whether it stands above or below them.

Experiments:
[1] = molecular target: T1, human FOLR1 endogenously expressed on tumor cell lines (human, UniProt P15328 25-234); test: cell-based or functional assay
[2] = molecular target: T1, human FOLR1 endogenously expressed on …; test: cell-based or functional assay; remark: listed apart in the source
[3] = molecular target: T1, human FOLR1 endogenously expressed on …; test: cell-based or functional assay; remark: listed apart in the source
[4] = molecular target: T2, cynomolgus CD16 expressed on CHO cells (cAg_36) (cynomolgus, UniProt Q8SPW2 17-254); test: flow cytometry on cyCD16 CHO cells (cAg_36), one-site fit of MFI, Exp. 1
T2 construct: whole, on cells; also called cyCD16
Protocol: (§1) After washing in FACS buffer, cells were incubated in 50 μL FACS buffer without antibodies or with titrated antibodies starting at a concentration of 1000 nM followed by elven 3-fold serial dilutions for 40-50 min on ice in the dark. […] After washing, binding was measured by flow cytometry and mean fluorescence intensities (MFI) of cell samples were calculated and corrected for background staining using control cells stained with secondary antibodies only.
(§2) Equilibrium dissociation constants (KD) of antibody binding were calculated by plotting MFI values and fitting a non-linear regression model for one-site binding to hyperbolic dose-response curves using GraphPad Prism.

[5] = molecular target: T3, cynomolgus FOLR1 expressed on CHO cells (cAg_126) (cynomolgus, UniProt A0A2K5U044 25-234); test: flow cytometry on cyFOLR1 CHO cells (cAg_126), one-site fit of MFI, mean
T3 construct: whole, on cells; also called cyFOLR1
Protocol: (§3) To analyze binding of different antibody constructs to CHO cells transfected with human FOLR1 (cAg_125) and cynomolgus FOLR1 (cAg_126), 1-5×10⁵ were resuspended in 100 μL FACS buffer (PBS (BioWest, cat.: L0615-500) containing 2% heat-inactivated FCS (Invitrogen, cat.: 10500-064), and 0.1% sodium azide (Sigma, cat.: S8032_100G)) in round-bottom 96-well microtiter plates. After washing in FACS buffer, cells were incubated in 50 μL FACS buffer without antibodies or with titrated antibodies starting at a concentration of 1000 nM followed by eleven 3-fold serial dilutions for 40-50 min on ice in the dark. […] After washing, binding was measured by flow cytometry and mean fluorescence intensities (MFI) of cell samples were calculated and corrected for background staining using control cells stained with secondary antibodies only.
as §2, with “Binding of antibody constructs to huFOLR1-as well as cyFOLR1-transfected CHO cells was measured by flow cytometry. Equilibrium” for “Equilibrium”

[6] = molecular target: T4, human FOLR1 expressed on CHO cells (cAg_125) (human, UniProt P15328 25-234); test: flow cytometry on huFOLR1 CHO cells (cAg_125), one-site fit of MFI, mean
T4 construct: whole, on cells; also called huFOLR1
Protocol: as §3
as §2, with “Binding of antibody constructs to huFOLR1-as well as cyFOLR1-transfected CHO cells was measured by flow cytometry. Equilibrium” for “Equilibrium”

[7] = molecular target: T3, cynomolgus FOLR1 expressed on CHO cells …; test: flow cytometry on cyFOLR1 CHO cells (cAg_126), one-site fit of MFI, Exp. 1
Protocol: as §3
as §2, with “Binding of antibody constructs to huFOLR1-as well as cyFOLR1-transfected CHO cells was measured by flow cytometry. Equilibrium” for “Equilibrium”

[8] = molecular target: T3, cynomolgus FOLR1 expressed on CHO cells …; test: flow cytometry on cyFOLR1 CHO cells (cAg_126), one-site fit of MFI, Exp. 2
Protocol: as §3
as §2, with “Binding of antibody constructs to huFOLR1-as well as cyFOLR1-transfected CHO cells was measured by flow cytometry. Equilibrium” for “Equilibrium”

[9] = molecular target: T4, human FOLR1 expressed on CHO cells …; test: flow cytometry on huFOLR1 CHO cells (cAg_125), one-site fit of MFI, Exp. 1
Protocol: as §3
as §2, with “Binding of antibody constructs to huFOLR1-as well as cyFOLR1-transfected CHO cells was measured by flow cytometry. Equilibrium” for “Equilibrium”

[10] = molecular target: T5, human CD16A (158F) expressed on CHO cells (cAg_34) (human, UniProt P08637 17-254); test: flow cytometry on huCD16A (158F) CHO cells (cAg_34), one-site fit of MFI, Exp. 2
T5 construct: also called huCD16A-transfected CHO cells
Protocol: as §1, §2

[11] = molecular target: T2, cynomolgus CD16 expressed on CHO cells …; test: flow cytometry on cyCD16-transfected CHO cells (cAg_36), on ice, FITC goat anti-human IgG detection
Protocol: as §1

[12] = molecular target: CD16A endogenously expressed on primary human NK cells (human, UniProt P08637 17-254); test: flow cytometry on primary human NK cells, biotinylated antibody, 37 C, with 10 mg/mL polyclonal human IgG as competitor, mean of 4
Protocol: 4° C., and resuspended in 50 μL/well of diluted antibody constructs. […] After 40-50 minutes' incubation at 37° C., cells were washed 3-times with ice-cold FACS buffer. […] After the final incubation step, cells were washed 2-times with ice-cold FACS buffer, and the cell pellet was resuspended in 50 μL FACS buffer. Fluorescence intensity of >1×10⁴ viable cells was analyzed by flow cytometry and the median fluorescence intensity (MFI) was determined for each sample.
as §2

T2 sequence (Q8SPW2 17-254): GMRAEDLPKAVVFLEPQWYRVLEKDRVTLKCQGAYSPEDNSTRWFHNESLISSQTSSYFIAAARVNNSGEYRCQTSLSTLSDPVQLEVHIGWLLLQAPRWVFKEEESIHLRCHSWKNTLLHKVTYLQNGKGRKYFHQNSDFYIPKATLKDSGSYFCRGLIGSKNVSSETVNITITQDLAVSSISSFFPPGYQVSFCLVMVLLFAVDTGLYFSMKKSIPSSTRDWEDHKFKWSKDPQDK
T4 sequence (P15328 25-234): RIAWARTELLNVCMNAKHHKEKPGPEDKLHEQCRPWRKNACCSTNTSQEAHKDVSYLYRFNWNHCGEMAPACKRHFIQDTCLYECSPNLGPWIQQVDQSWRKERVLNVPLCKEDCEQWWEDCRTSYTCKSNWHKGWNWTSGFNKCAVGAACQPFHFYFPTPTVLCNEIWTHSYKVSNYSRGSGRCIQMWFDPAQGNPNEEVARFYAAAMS
T1 sequence (P15328 25-234): as above
T3 sequence (A0A2K5U044 entry or part of it): as the sequence (P15328 25-234) above, with I2T, W4R, R37K, A146P, H171Y counted along it
T5 sequence (P08637 17-254 limits assumed): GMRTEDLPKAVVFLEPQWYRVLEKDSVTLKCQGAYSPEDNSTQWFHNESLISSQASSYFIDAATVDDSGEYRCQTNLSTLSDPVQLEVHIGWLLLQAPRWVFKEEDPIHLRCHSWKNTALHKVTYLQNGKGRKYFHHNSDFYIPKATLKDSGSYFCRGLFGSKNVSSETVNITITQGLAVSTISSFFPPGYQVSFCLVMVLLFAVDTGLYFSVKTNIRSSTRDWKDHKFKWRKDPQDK
CD16A endogenously expressed on primary human NK cells, sequence (P08637 17-254 limits assumed): as above

EC50 of ADCC, 4 h calcein release, NK cells, HCC-827 cells [1]: 0.006 nM
EC50 of ADCC, 4 h calcein release, NK cells, OVCAR-3 cells [1]: 0.0008 nM
EC50 [nM] of ADCP, DK-MG cells [2]: 0.1 nM
EC50 [nM] of ADCP, HCC-78 cells [2]: 17.8 nM
EC50 [nM] of ADCP, HeLa cells [2]: 0.16 nM
Phagocytosis [%], 4 h ADCP, DK-MG cells [2]: 17.6%
Phagocytosis [%], 4 h ADCP, HCC-78 cells [2]: 26%
EC50 [pM] of ADCC, 4 h calcein release, NK cells E:T 5:1, IGROV-1 cells [3]: 1 pM
EC50 [pM] of ADCC, A2780 cells [3]: 5.5 pM
EC50 [pM] of ADCC, HCC-827 cells [3]: 2.8 pM
EC50 [pM] of ADCC, MDA-MB-231 cells [3]: 6.5 pM
EC50 [pM] of ADCC, NCI-H2110 cells [3]: 0.8 pM
EC50 [pM] of ADCC, OVCAR-3 cells [3]: 1.1 pM
fold-improvement in efficacy vs IgAb_335, ADCC, A2780 cells [3]: 2.9 fold
fold-improvement in efficacy vs IgAb_335, ADCC, HCC-827 cells [3]: 1.9 fold
fold-improvement in efficacy vs IgAb_335, ADCC, IGROV-1 cells [3]: 0.9 fold
fold-improvement in efficacy vs IgAb_335, ADCC, MDA-MB-231 cells [3]: 2.1 fold
fold-improvement in efficacy vs IgAb_335, ADCC, NCI-H2110 cells [3]: 1.2 fold
fold-improvement in efficacy vs IgAb_335, ADCC, OVCAR-3 cells [3]: 1.4 fold
fold-improvement in potency vs IgAb_335, ADCC, A2780 cells [3]: 593 fold
fold-improvement in potency vs IgAb_335, ADCC, HCC-827 cells [3]: 30.8 fold
fold-improvement in potency vs IgAb_335, ADCC, IGROV-1 cells [3]: 15.1 fold
fold-improvement in potency vs IgAb_335, ADCC, MDA-MB-231 cells [3]: 54 fold
fold-improvement in potency vs IgAb_335, ADCC, NCI-H2110 cells [3]: 34.4 fold
fold-improvement in potency vs IgAb_335, ADCC, OVCAR-3 cells [3]: 40.4 fold
Kd [4]: 26.6 nM
Kd [5]: 16.3 nM
Kd [6]: 35.8 nM
Kd [7]: 14.9 nM
Kd [8]: 15.3 nM
Kd [9]: 35.1 nM
Kd [10]: 28.5 nM
EC50 (read off the curve) [11]: ~30 nM
Kd [12]: 23.1 nM
B1: scFv-IgAb_387 (FOLR1_1×CD16a3) (bispecific antibody)
heavy: EVQLVESGGGVVQPGRSLRLSCSASGFTFSGYGLSWVRQAPGKGLEWVAMISSGGSYTYYADSVKGRFAISRDNAKNTLFLQMDSLRPEDTGVYFCARHGDDPAWFAYWGQGTPVTVSSASTKGPSVFPLAPSSKSTSGGTAALGCLVKDYFPEPVTVSWNSGALTSGVHTFPAVLQSSGLYSLSSVVTVPSSSLGTQTYICNVNHKPSNTKVDKKVEPKSCDKTHTCPPCPAPEFEGGPSVFLFPPKPKDTLMISRTPEVTCVVVAVSHEDPEVKFNWYVDGVEVHNAKTKPREEQYNSTYRVVSVLTVLHQDWLNGKEYKCKVSNKALPAPIEKTISKAKGQPREPQVYTLPPSREEMTKNQVSLTCLVKGFYPSDIAVEWESNGQPENNYKTTPPVLDSDGSFFLYSKLTVDKSRWQQGNVFSCSVMHEALHNHYTQKSLSLSPGGGGGSGGGGSGGGGSGGGGSGGGGSGGGGSSYELTQPLSVSVALGQTARITCGGNNIGSKSVHWYQQKPGQAPVLVIYQDKKRPSGIPERFSGSNSGNTATLTISRAQAGDEADYYCQVWDDYIVLFGCGTKLTVLGGSGGSGGSGGSGGSGGSGGSQVQLVQSGAEVKKPGASVKVSCKASGYTFTNYYMQWVRQAPGQCLEWMGIINPSGGVTSYAQKFQGRVTMTRDTSTSTVYMELSSLRSEDTAVYYCARGSAYYYDFADYWGQGTLVTVSSG
light: DIQLTQSPSSLSASVGDRVTITCSVSSSISSNNLHWYQQKPGKAPKPWIYGTSNLASGVPSRFSGSGSGTDYTFTISSLQPEDIATYYCQQWSSYPYMYTFGQGTKVEIKRTVAAPSVFIFPPSDEQLKSGTASVVCLLNNFYPREAKVQWKVDNALQSGNSQESVTEQDSKDSTYSLSSTLTLSKADYEKHKVYACEVTHQGLSSPVTKSFNRGEC
modifications: Chemically biotinylated (NHS-PEG4-biotin) in Example 22 only.
notes: Tetravalent bispecific scFv-IgAb; also called FOLR1×CD16A scFv-IgAb_387; FOLR1/CD16A scFv-IgAb_387; copies: 2 + 2

Kd [4]: 38.6 nM
Kd [5]: 12.4 nM
Kd [6]: 24.7 nM
Kd [7]: 11.5 nM
Kd [8]: 11.8 nM
Kd [9]: 20.3 nM
Kd [10]: 29.3 nM
EC50 (read off the curve) [11]: ~40 nM
B2: scFv-IgAb_381 (FOLR1_1×CD16a4) (bispecific antibody)
chain 1: EVQLVESGGGVVQPGRSLRLSCSASGFTFSGYGLSWVRQAPGKGLEWVAMISSGGSYTYYADSVKGRFAISRDNAKNTLFLQMDSLRPEDTGVYFCARHGDDPAWFAYWGQGTPVTVSSASTKGPSVFPLAPSSKSTSGGTAALGCLVKDYFPEPVTVSWNSGALTSGVHTFPAVLQSSGLYSLSSVVTVPSSSLGTQTYICNVNHKPSNTKVDKKVEPKSCDKTHTCPPCPAPEFEGGPSVFLFPPKPKDTLMISRTPEVTCVVVAVSHEDPEVKFNWYVDGVEVHNAKTKPREEQYNSTYRVVSVLTVLHQDWLNGKEYKCKVSNKALPAPIEKTISKAKGQPREPQVYTLPPSREEMTKNQVSLTCLVKGFYPSDIAVEWESNGQPENNYKTTPPVLDSDGSFFLYSKLTVDKSRWQQGNVFSCSVMHEALHNHYTQKSLSLSPGGGGGSGGGGSGGGGSGGGGSGGGGSGGGGSSYELTQPLSVSVALGQTARITCGGHNIGSKNVHWYQQKPGQAPVLVIYQDNKRPSGIPERFSGSNSGNTATLTISRAQAGDEADYYCQVWDNYNVLFGCGTKLTVLGGSGGSGGSGGSGGSGGSGGSQVQLVQSGAEVKKPGASVKVSCKASGYTFTSYYMHWVRQAPGQCLEWMGAIEPTYGSTSYAQKFQGRVTMTRDTSTSTVYMELSSLRSEDTAVYYCARGSAYYYDFADYWGQGTLVTVS
chain 2: B1 light
notes: also called FOLR1×CD16A scFv-IgAb_381
